First the molecules themselves.
B1: AS179732 (Fc fusion)
chain: NFMLTQPPSMSGSPRQSVTISCTGSSSNIGGNYVNWYQHLPGTAPKLLIYDNSNRASGVPERFSGSKSGSSASLTITGLQAEDEGDYYCASWDDSLSGAVFGGGTHLTVLGGGGSGGGGSGGGGSEVQLVESGGGLVQPGGSLRLSCAASGFTFLNYAMSWVRQAPGKGLEWVSSNSGAGSTYYSDSVKGRFTISRDYAKNVVYLQLNSLKTEDTGMYYCAKGTNVGSWSSLHYWGQGTQVTVSS
B2: AS170036 VL1VH1 (Fc fusion)
chain: QSALTQPRSVSGSPGQSVTISCAGTSSDVGSENYVSWYQQHPGKAPKLMIYQVNKRASGVPDRFSGSKSGNTASLTISGLQAEDEADYYCASYRSSDHNIVFGGGTKLTVLGGGGSGGGGSGGGGSEVQLVESGGGLVQPGGSLRLSCAASGFTFSSYAMSWVRQAPGKGLEWVSTINSGTGSPYYADSVKGRFTISRDNSKNTLYLQMNSLRAEDTAVYYCAKNFFDGSWFLGPPAMDYWGQGTLVTVSS
B3: AS190259 scFv-mIgG2aFc (Fc fusion)
chain: QSVVTQPSAVSVSLEETATITCQGGGYYVNWYQQKPGQAPVLVIYLNTNRPSGIPERFSASKSGGTATLTINGAQAEDEAAYYCQSADSSGNSAVFGGGTHLTVLGGGGSGGGGSGGGGSQVQLVQSGGGLVQPGGSLRLSCAASGFTFSSYAMSWVRQAPGKGLEWVSAINSGGGSTYYADSVKGRFTISRDNAKNTLYLQLNSLKTEDTAMYYCAKAASGYGGSWWGDATLDAWGQGTLVTVSS
B4: AS170036 scFv-mIgG2aFc (Fc fusion)
chain: QLVLTQPSSVSGTPGQTVTISCAGTSSDVGSENYVSWYRQLPGTAPKLLIYQVNKRASGIADRFSGSKSGNTASMTISGLQSADEADYYCASYRSSDHNIVFGGGTHLTVLGGGGSGGGGSGGGGSAVQLVESGGGLVQPGGSLRLSCTASGFTFSSYAMSWVRQAPGKGLEWVSTINSGTGSPYYADSVKGRFTISRDNAKNTLYLQLNSLKTEDTAMYYCAKNFFDGSWFLGPPAMDYWGKGTLVTISS
B5: AS179732 scFv-mIgG2aFc (Fc fusion)
chain: B1 chain
B6: AS179723 scFv-mIgG2aFc (Fc fusion)
chain: B1 chain with N1Q, F2A, M3G, S27N, S53K, A56P, R62Q, F63I, G98A, A99V
B7: AS170036 VL1VH1-56Y98Q108S (scFv)
scFv: QSALTQPRSVSGSPGQSVTISCAGTSSDVGSENYVSWYQQHPGKAPKLMIYQVNKRASGVPDRFSGSKSGNTASLTISGLQAEDEADYYCASYRSSDQNIVFGGGTKLTVLGGGGSGGGGSGGGGSEVQLVESGGGLVQPGGSLRLSCAASGFTFSSYAMSWVRQAPGKGLEWVSTINSGTYSPYYADSVKGRFTISRDNSKNTLYLQMNSLRAEDTAVYYCAKNFFDGSWFLSPPAMDYWGQGTLVTVSSHHHHHH
B8: AS170036 VL1VH1-56N108A (scFv)
scFv: B7 scFv with Q98H, Y182N, S234A
B9: AS170036 VL1VH1 (scFv)
scFv: B7 scFv with Q98H, Y182G, S234G
B10: AS170036 VL1VH1-57K108S (scFv)
scFv: B7 scFv with Q98H, Y182G, S183K
B11: AS170036 VL1VH1-56N98I (scFv)
scFv: B7 scFv with Q98I, Y182N, S234G
B12: AS170036 VL1VH1-57M98Q (scFv)
scFv: B7 scFv with Y182G, S183M, S234G
B13: AS170036 VL1VH1-98I108A (scFv)
scFv: B7 scFv with Q98I, Y182G, S234A
B14: AS167821 sdAb-mIgG2aFc (Fc fusion)
chain: QVRLVESGGGSVQAGGSLRLSCAASGRTYSTYCMGWFRQAPGKEREGVATIYIGSGRTYYVDSVKGRFTISQDNAKNTLYLQMNNLKPEDTAMYYCTADVDPYESSWSRGLGYWGQGTQVTVSS
B15: AS148691 scFv-mIgG2aFc (Fc fusion)
chain: DIQMTQSPSSLSASVGDRVTITCRASQSVSSAVAWYQQKPGKAPKLLIYSASSLYSGVPSRFSGSRSGTDFTLTISSLQPEDFATYYCQQYYGAYLITFGQGTKVEIKGGGGSGGGGSGGGGSEVQLVESGGGLVQPGGSLRLSCAASGFNLYYSSIHWVRQAPGKGLEWVASIYSSYGSTSYADSVKGRFTISADTSKNTAYLQMNSLRAEDTAVYYCARVGPGYYGIDYWGQGTLVTVSS
B16: AS167830 sdAb-mIgG2aFc (Fc fusion)
chain: QVKLVESGGGSVQAGGSLRLSCAASRSSEYMNRRFCMGWFRQASGKEREGVAVVYIGGGRTYYADSVKGRFTISQDNAKNTLYLQMNNLKPEDTAMYYCTADVDPYESSWSRDLGYWGQGTQVTVSS

Residue numbers refer to the chain shown, from its start. Where only a bound is given, the exact number is not on record here.

The target in the first test is A*02:02. Description: SPR. (Surface plasmon resonance follows binding to a sensor surface in real time, without labels.)
For the molecule B1, the dissociation constant (Kd) (usually a measure of binding affinity in units of concentration) turned out to be 19 µM.

The next test concerns the target A*02:05. Description: SPR.
For the molecule B1, the Kd stood at 26.2 µM.

A further test addresses A*02:03. The experiment in a line: SPR.
Consider B1, for which the affinity, expressed as Kd, was 2140 nM.

The target of a further test is A*02:11. Description: SPR.
In the case of B1, binding was characterised by a dissociation constant (Kd) of 656 nM.

In the next test the target is A*02:06. Description: SPR.
Regarding B2, the affinity, expressed as Kd, was 2770 nM.
Same read-out and setting: the result for B1 reads 191 nM.

In a further test the target is AFP158/HLA-A*02:01 complex. Description: SPR; head prints KD(1/s).
Turning to B3, binding was put at a Kd of 100 nM.

The target in the next test is AFP158/HLA-A*02:01 complex. Description: SPR.
For the molecule B4, binding was put at a Kd of 387 nM.
With B5, the dissociation constant Kd came to 39.8 nM.
On the same count and under the same terms, the result for B6 reads 80.4 nM.

For another test, the target named is AFP158/HLA-A*02:01 complex. Description: SPR. The source holds these as a separate data set.
In turn, B7 returned a Kd of 7 nM.
The same measure, in the same setting: as for B8, the figure is 27 nM; as for B9, 710 nM; as for B10, 35 nM.
Molecule B11 displayed a Kd of 41 nM. This Kd and that of the molecule before are within 1.5-fold of each other.
Same read-out and setting: as for B12, the figure is 46 nM.
In turn, B13 showed a Kd of 22 nM.

The target in a further test is A*02:02. The experiment in a line: SPR; low fitting confidence.
As for B2, the Kd is more than 71 µM.

In another test the target is A*02:07. Description: SPR; low fitting confidence.
As to B2, the dissociation constant (Kd) is more than 1200 nM.
For B1, the dissociation constant Kd is more than 770 nM.

The next test concerns the target A*02:11. The experiment in a line: SPR; low fitting confidence.
The molecule B2 returned a Kd of more than 14 µM.

The next test concerns the target AFP158 loaded T2 cells (human;, UniProt P61769 21-119). Description: flow cytometry. In general terms: A flow cytometer gives signals particle by particle.
For B3, the EC50 (in general, the midpoint of the concentration-response curve) turned out to be 3.76 nM.
Consider B14, for which the EC50 was 3.63 nM. The EC50 values of the last two molecules are within 1.5-fold of each other.
The same measure, in the same setting: as for B15, the figure is 413 nM.
B4: the response was half-maximal at 4.35 nM (EC50).
Take B5: the EC50 is 1.15 nM.
Same read-out and setting: as for B6, the figure is 1.48 nM; as for B16, 6.14 nM.

A further test has as its target A*02:02. The experiment in a line: SPR; low fitting confidence. The source holds these as a separate data set.
B7 had a Kd of more than 3100 nM.
On the same count and under the same terms, as for B8, the figure is more than 3700 nM.
Same read-out and setting: the result for B9 reads more than 1500 nM; that for B10, more than 1400 nM; that for B11, more than 3200 nM.
For the molecule B12, the Kd is more than 910 nM.
Same read-out and setting: as for B13, the figure is more than 530 nM.

In a further test the target is A*02:07. The experiment in a line: SPR; low fitting confidence. This is another data set of the same source.
In the case of B8, the Kd was more than 9.1 µM.
In turn, B9 showed a Kd of more than 18 µM.
B11: the Kd is more than 17 µM.
On the same count and under the same terms, the result for B12 reads more than 19 µM.
On the same count and under the same terms, as for B13, the figure is more than 16 µM.

The next test addresses A*02:05. The experiment in a line: SPR; low fitting confidence.
As for B7, the Kd is more than 1400 nM.
B8 registered a Kd of more than 2000 nM.
Same read-out and setting: the result for B12 reads more than 910 nM; that for B13, more than 1100 nM.

Another test deals with A*02:03. The experiment in a line: SPR; low fitting confidence.
In the case of B7, the Kd was less than 18 nM.
Molecule B9 displayed a Kd of more than 2800 nM.
Turning to B10, the Kd was less than 10 nM.
Take B12: the dissociation constant (Kd) is more than 43000 nM.
On the same count and under the same terms, as for B13, the figure is more than 31000 nM.

In the next test the target is A*02:11. Description: SPR; low fitting confidence. The source holds these as a separate data set.
On to B8, for which the Kd was more than 500 nM.
Still for that read-out and setting: the result for B11 reads more than 500 nM; that for B13, more than 250 nM.

Another test concerns the target A*02:07. The experiment in a line: SPR.
As for B7, the Kd is 1.5 µM.
On to B10, for which the Kd came to 10 µM.

A further test deals with A*02:05. Description: SPR. The source holds these as a separate data set.
On to B11, for which binding was put at a Kd of 2100 nM.

Another test addresses A*02:03. The experiment in a line: SPR. The source holds these as a separate data set.
B8 came in with a Kd of 6.7 µM.
Regarding B11, binding was put at a Kd of 2.7 µM.

The target of another test is A*02:11. The experiment in a line: SPR. This is another data set of the same source.
With B7, the Kd was determined as 290 nM.
With B9, the Kd is 220 nM.
Molecule B10 showed a Kd of 370 nM.
On the same count and under the same terms, as for B12, the figure is 360 nM.

Another test concerns the target A*02:06. The experiment in a line: SPR. This is another data set of the same source.
As to B7, the Kd was 89 nM.
Same read-out and setting: the result for B8 reads 320 nM; that for B9, 5100 nM.
The molecule B10 yielded a Kd of 500 nM.
The same measure, in the same setting: the result for B11 reads 570 nM.
On the same count and under the same terms, the result for B12 reads 570 nM; that for B13, 330 nM.

The record behind these values is patent US20240279318A1 (published 2024).
